Where two headings read alike, the source gives them in different places.
B1: VHH R3_DC5 (VHH)
VHH: QVQLQESGGGLVQAGDSLRLSCAASGRIFSTYTMGWFRQAPGMEREFVAAIRWSGSTVYYADSVKGRFTISRDNAKNTVYLQMNSLKPEDTAVYYCAAARVSKANYGTLWYRATGLYDYWGQGTQVTVSS
B2: VHH R3_DC19 (VHH)
VHH: QVQLQESGGGLVQPGDSLRLSCAVSGRPFSTYTMGWFRQAPGKEREFVAAMRWSGGTIYYADSVKGRFTISRDNDKNTVNLEMNSLKPEDTAVYYCAAAYVSKANYGSLWYRASGLYDYWGQGTQVTVSS
B3: VHH R3_DC21 (VHH)
VHH: QVQLQESGGGLVQAGDSLRLSCAVSGRPFSTYTMGWFRQAPGKEREFVAAMRWSGGTIYYADSVRGRFTISRDNDKNTVNLEMNSLKPEDTAVYYCAAAYVSKANYGSLWYRASGLYDYWGQGTQVTVSS
B4: 3.83 (VHH)
VHH: QVQLQESGGGLVQPGDSLRLSCVLSGGVFTSYAMGWFRQAPGKEREFLAAITFNSDATYYADSVKGRFTISRDNAKNTAYLQMNSLKPNDTAVYSCAAGGNHYNPQYYHDYDKYDHWGQGTQVTVSS

Columns and labels:
[1] = target: T1, SARS-COV-2 RBD (His-tagged, Sinobiologicals) (SARS-CoV-2 (Wuhan), UniProt P0DTC2 319-541); assay: ELISA, periplasmic extract 1/10, OD450 antigen/OD450 BSA
[2] = target: T2, recombinant HKU1 spike protein (HCoV-HKU1, UniProt Q5MQD0 13-1276); assay: ELISA, periplasmic extract 1/10, heat map of binding (%)
T2 sequence: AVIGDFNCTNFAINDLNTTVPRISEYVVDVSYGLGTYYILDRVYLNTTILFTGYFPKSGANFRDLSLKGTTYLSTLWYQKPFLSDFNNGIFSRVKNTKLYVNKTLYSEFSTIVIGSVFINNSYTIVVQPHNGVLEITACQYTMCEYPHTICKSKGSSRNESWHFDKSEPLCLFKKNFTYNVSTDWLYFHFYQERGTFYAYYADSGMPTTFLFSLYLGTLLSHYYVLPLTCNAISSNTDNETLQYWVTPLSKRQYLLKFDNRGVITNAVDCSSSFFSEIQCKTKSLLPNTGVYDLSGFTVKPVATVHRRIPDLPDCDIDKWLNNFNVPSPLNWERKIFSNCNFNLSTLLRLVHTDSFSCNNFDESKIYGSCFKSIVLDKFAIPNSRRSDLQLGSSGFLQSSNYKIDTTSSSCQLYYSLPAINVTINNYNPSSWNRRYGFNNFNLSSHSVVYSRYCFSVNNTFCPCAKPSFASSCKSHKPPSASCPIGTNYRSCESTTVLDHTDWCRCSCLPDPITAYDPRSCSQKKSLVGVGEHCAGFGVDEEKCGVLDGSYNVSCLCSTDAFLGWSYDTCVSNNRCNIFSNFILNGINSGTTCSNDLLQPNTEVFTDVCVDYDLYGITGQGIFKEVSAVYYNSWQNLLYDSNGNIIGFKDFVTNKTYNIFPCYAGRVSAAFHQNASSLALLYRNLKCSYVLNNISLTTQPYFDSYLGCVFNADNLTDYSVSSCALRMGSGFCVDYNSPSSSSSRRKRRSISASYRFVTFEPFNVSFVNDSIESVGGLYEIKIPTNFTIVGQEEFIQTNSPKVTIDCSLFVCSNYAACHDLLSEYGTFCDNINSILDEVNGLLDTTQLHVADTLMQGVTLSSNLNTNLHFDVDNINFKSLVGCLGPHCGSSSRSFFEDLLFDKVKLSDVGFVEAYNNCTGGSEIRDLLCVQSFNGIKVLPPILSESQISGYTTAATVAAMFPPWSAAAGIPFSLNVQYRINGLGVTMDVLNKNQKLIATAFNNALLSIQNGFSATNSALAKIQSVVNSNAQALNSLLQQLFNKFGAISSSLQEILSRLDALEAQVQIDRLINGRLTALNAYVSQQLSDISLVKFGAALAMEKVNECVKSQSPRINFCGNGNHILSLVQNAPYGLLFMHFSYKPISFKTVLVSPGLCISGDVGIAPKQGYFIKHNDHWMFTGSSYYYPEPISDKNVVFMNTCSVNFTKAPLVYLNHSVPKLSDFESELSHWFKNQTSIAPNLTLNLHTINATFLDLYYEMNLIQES

[3] = target: T3, recombinant MERS-COV spike protein (MERS-CoV, UniProt K9N5Q8 18-1291); assay: as above
T3 sequence: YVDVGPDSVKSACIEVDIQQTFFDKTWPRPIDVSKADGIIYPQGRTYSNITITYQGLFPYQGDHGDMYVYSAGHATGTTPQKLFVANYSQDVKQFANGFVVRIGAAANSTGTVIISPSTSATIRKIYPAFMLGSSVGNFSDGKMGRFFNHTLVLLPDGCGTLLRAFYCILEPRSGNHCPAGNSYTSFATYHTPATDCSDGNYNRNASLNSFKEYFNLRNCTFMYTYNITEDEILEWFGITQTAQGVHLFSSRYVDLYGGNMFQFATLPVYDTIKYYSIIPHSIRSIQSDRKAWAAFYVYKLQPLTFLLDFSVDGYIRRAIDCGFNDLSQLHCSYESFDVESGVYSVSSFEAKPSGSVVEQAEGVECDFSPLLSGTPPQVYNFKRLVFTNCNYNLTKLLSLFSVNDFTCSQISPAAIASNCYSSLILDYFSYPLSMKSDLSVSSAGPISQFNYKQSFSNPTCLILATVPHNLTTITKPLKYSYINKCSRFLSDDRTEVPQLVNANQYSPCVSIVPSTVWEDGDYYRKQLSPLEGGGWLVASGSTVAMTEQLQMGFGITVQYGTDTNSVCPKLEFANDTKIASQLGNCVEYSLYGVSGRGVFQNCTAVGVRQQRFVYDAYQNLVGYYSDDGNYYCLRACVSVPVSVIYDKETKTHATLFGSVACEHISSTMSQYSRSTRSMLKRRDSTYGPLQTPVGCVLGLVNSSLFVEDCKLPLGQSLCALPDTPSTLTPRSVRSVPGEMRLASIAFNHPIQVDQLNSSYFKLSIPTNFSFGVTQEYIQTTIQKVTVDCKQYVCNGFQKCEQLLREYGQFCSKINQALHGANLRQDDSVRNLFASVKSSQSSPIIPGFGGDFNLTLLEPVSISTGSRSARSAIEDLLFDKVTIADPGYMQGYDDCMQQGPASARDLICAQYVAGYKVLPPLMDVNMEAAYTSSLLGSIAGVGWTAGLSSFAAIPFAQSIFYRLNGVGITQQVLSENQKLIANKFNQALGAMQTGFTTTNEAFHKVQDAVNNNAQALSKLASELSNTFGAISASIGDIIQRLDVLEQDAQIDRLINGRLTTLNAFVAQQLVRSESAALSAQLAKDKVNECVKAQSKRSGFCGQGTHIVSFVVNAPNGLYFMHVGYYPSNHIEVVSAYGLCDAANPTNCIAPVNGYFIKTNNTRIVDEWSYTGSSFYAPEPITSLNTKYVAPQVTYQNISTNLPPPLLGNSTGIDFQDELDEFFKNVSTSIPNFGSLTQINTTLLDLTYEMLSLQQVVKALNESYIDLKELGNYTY

[4] = target: T1, SARS-COV-2 RBD (His-tagged, …); assay: ELISA, periplasmic extract 1/10, OD450 antigen/OD450 BSA; remark: listed apart in the source

Binder | binding result [1] | binding result [2] | binding result [3] | binding result [4]
B1 | no binding (tested: extract 1/10, concentration not given) | no binding (tested: extract 1/10, concentration not given) | no binding (tested: extract 1/10, concentration not given) | –
B2 | no binding (tested: extract 1/10, concentration not given) | no binding (tested: extract 1/10, concentration not given) | no binding (tested: extract 1/10, concentration not given) | –
B3 | no binding (tested: extract 1/10, concentration not given) | no binding (tested: extract 1/10, concentration not given) | no binding (tested: extract 1/10, concentration not given) | –
B4 | – | – | – | binds

From patent US20250313611A1 (VIB VZW, published 2025)
